In one data set the target is MYC2-TF (tomato, UniProt A0A3Q7HRZ6 1-689). Put plainly: EMSA.
Another data set deals with T1, EIL1-GST (tomato, UniProt Q94FV4 1-610).
T1 sequence: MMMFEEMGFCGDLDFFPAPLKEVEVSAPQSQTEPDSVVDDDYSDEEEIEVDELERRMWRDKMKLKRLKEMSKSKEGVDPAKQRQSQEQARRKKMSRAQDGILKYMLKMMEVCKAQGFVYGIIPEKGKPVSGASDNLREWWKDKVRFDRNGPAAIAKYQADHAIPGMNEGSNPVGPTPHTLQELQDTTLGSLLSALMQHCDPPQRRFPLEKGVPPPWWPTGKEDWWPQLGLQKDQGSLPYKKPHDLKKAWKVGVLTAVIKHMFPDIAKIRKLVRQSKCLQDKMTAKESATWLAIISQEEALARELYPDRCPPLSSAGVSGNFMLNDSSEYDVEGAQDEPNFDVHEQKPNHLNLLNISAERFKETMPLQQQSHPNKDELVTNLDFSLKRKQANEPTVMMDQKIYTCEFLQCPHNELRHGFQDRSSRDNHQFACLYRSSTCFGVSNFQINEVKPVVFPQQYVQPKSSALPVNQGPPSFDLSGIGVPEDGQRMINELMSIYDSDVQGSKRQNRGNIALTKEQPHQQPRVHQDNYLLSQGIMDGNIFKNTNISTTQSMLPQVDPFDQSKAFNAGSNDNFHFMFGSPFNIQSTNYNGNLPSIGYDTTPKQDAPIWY
Put plainly: EMSA. Background: In EMSA bound probe runs differently from free probe, usually more slowly.

Sequence of MYC2-TF (A0A3Q7HRZ6 whole entry): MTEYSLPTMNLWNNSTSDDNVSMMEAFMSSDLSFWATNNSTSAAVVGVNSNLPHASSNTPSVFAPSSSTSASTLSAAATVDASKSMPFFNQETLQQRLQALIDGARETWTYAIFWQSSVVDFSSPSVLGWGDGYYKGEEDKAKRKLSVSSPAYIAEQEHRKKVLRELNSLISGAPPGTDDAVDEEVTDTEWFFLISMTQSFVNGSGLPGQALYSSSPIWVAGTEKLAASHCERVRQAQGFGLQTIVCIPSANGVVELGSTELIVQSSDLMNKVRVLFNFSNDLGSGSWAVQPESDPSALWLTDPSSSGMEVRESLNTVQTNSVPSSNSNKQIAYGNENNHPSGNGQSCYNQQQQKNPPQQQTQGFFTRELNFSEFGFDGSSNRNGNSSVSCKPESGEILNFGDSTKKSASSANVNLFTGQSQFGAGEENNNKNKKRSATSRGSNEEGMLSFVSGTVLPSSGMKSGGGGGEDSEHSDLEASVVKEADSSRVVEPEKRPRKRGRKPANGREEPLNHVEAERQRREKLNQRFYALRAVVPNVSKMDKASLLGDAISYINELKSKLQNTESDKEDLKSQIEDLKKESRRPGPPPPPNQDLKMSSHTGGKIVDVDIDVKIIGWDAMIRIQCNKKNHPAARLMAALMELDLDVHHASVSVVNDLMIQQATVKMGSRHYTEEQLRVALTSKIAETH

B1: CYP94B promoter G-box probe (dsDNA)
DNA 1: TTTACGCGCACAAGAAACACGTGATTTAAATGCATAATTA
DNA 2: TAATTATGCATTTAAATCACGTGTTTCTTGTGCGCGTAAA
Take B1: the binding result in the data set with MYC2-TF is recorded as “binds”.

B2: CYP94C1 promoter EBS probe (dsDNA)
DNA 1: TGTGTCTTTTTTCAATAAAGGTGATGTATCGGGACAAGATGCATCGGACGCTG
DNA 2: CAGCGTCCGATGCATCTTGTCCCGATACATCACCTTTATTGAAAAAAGACACA
As for B2, in the data set with EIL1-GST, the binding result is reported as “binds”.

The values are drawn from article doi:10.1101/2023.05.17.541065.
